Measured values from US20130252251A1 (CENTRE NATIONAL DE LA RECHERCHE SCIENTIFIQUE, published 2013).

Tests used:
[1] = target: membrane receptor interacting with BLV; assay: flow cytometry, tagged RBD on sputum neutrophils of one CF patient
[2] = target: membrane receptor interacting with BLV; assay: flow cytometry, tagged RBD on blood neutrophils of one CF patient
[3] = target: membrane receptor interacting with BLV; assay: flow cytometry, tagged RBD on blood neutrophils of healthy control donors (N=8)
[4] = target: membrane receptor interacting with BLV; assay: flow cytometry, tagged RBD on blood neutrophils of rheumatoid arthritis patients (N=9)
[5] = target: PAR (PeRV A Receptor) receptors: human Riboflavin Transporter 1 (hRFT1 or PAR2) and hRFT3 (or PAR1); assay: flow cytometry, tagged RBD on sputum neutrophils of one CF patient
[6] = target: PAR (PeRV A Receptor) receptors: human Riboflavin Transporter 1 (hRFT1 or PAR2) and hRFT3 (or PAR1); assay: flow cytometry, tagged RBD on blood neutrophils of one CF patient
[7] = target: PAR (PeRV A Receptor) receptors: human Riboflavin Transporter 1 (hRFT1 or PAR2) and hRFT3 (or PAR1); assay: flow cytometry, tagged RBD on blood neutrophils of healthy control donors (N=8)
[8] = target: PAR (PeRV A Receptor) receptors: human Riboflavin Transporter 1 (hRFT1 or PAR2) and hRFT3 (or PAR1); assay: flow cytometry, tagged RBD on blood neutrophils of rheumatoid arthritis patients (N=9)
[9] = target: T1, ASCT2 membrane receptor (human, UniProt Q15758 1-541); assay: flow cytometry, tagged RBD on blood neutrophils of healthy control donors (N=8)
T1 construct: whole, on cells; Endogenous receptor on primary blood or sputum neutrophils; also called ASTC2
T1 sequence: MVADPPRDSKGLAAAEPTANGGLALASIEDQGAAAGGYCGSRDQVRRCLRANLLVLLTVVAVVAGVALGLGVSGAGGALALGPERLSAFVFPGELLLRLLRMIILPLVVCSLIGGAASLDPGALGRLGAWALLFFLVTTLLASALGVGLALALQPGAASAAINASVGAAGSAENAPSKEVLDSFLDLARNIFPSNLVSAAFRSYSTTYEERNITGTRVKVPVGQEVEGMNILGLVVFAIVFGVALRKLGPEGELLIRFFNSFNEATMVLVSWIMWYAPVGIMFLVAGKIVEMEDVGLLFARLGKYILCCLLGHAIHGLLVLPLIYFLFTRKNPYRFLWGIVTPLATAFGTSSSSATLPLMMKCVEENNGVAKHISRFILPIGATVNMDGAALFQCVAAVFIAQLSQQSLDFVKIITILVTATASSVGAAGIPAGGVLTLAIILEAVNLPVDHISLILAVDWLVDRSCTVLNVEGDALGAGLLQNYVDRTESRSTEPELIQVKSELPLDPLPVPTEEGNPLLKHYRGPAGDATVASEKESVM

[10] = target: T1, ASCT2 membrane receptor; assay: flow cytometry, tagged RBD on blood neutrophils of rheumatoid arthritis patients (N=9)
[11] = target: T2, PiT2 membrane receptor (human, UniProt Q08357 1-652); assay: flow cytometry, tagged RBD on blood neutrophils of healthy control donors (N=8)
T2 construct: whole, on cells; Endogenous receptor on primary blood or sputum neutrophils; also called FiT2
T2 sequence: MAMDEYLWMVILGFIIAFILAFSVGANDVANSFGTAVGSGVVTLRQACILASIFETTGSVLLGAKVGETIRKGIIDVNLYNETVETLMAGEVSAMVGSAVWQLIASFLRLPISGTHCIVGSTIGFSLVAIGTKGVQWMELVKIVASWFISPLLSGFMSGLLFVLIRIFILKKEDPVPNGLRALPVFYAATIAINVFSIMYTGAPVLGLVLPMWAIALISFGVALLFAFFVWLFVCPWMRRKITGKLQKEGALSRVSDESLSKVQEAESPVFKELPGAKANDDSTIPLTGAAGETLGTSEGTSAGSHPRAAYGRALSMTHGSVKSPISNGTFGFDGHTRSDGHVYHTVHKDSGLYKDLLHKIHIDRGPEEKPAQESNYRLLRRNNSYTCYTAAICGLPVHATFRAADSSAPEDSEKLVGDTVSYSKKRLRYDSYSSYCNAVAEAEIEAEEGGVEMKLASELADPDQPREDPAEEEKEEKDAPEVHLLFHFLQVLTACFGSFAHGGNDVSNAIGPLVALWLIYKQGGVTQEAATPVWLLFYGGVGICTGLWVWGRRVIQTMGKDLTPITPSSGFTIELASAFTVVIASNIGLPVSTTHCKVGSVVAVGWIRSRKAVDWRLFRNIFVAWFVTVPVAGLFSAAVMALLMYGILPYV

[12] = target: T2, PiT2 membrane receptor; assay: flow cytometry, tagged RBD on blood neutrophils of rheumatoid arthritis patients (N=9)
[13] = target: T3, GLUT1 membrane receptor (human, UniProt P11166 1-492); assay: flow cytometry, tagged RBD on blood neutrophils of healthy control donors (N=8)
T3 construct: whole, on cells; Endogenous receptor on primary blood or sputum neutrophils
T3 sequence: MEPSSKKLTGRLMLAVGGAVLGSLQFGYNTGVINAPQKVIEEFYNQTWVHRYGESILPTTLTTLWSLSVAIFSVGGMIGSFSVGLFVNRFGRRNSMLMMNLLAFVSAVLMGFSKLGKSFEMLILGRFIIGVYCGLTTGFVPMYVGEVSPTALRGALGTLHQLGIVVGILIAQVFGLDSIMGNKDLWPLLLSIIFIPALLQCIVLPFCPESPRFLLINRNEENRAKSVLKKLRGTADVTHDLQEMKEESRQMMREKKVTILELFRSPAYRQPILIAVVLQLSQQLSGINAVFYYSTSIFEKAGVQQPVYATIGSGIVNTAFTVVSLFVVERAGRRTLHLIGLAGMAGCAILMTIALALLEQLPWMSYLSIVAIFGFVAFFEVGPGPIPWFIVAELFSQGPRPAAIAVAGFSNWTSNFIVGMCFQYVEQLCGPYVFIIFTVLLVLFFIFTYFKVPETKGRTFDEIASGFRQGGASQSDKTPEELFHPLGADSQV

[14] = target: T3, GLUT1 membrane receptor; assay: flow cytometry, tagged RBD on blood neutrophils of rheumatoid arthritis patients (N=9)
[15] = target: T4, PiT1 membrane receptor (human, UniProt Q8WUM9 1-679); assay: flow cytometry, tagged RBD on blood neutrophils of healthy control donors (N=8)
T4 construct: whole, on cells; Endogenous receptor on primary blood or sputum neutrophils
T4 sequence: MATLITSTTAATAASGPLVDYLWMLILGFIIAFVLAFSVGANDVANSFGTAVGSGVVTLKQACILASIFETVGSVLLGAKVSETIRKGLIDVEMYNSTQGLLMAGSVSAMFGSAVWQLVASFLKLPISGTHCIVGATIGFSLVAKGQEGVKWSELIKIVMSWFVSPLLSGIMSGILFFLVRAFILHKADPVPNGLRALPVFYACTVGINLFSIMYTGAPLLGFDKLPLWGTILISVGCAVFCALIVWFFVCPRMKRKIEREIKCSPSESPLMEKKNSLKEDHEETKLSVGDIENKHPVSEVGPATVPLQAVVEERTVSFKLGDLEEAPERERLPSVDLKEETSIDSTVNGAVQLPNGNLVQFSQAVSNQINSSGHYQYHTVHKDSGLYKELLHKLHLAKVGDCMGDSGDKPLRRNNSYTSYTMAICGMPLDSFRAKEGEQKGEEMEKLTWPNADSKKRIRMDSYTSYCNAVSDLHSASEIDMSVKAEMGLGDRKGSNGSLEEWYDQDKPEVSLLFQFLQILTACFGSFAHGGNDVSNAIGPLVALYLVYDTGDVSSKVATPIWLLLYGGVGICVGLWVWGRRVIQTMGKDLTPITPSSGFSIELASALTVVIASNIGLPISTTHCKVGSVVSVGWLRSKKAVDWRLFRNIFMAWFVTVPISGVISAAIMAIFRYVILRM

[16] = target: T4, PiT1 membrane receptor; assay: flow cytometry, tagged RBD on blood neutrophils of rheumatoid arthritis patients (N=9)

Bovine Leukaemia Virus receptor-binding domain (BLV RBD) (from UniProt P25507 34-215) (ligand)
deltaGeomean of fluorescence [1]: 140 | deltaGeomean of fluorescence [2]: 0 | deltaMedian of fluorescence (median) [3]: 3550 | deltaMedian of fluorescence (median) [4]: 2750

Porcine Endogeneous Retrovirus-A receptor-binding domain (PERVA RBD) (ligand)
deltaGeomean of fluorescence [5]: 284 | deltaGeomean of fluorescence [6]: 4160 | deltaMedian of fluorescence (median) [7]: 3740 | deltaMedian of fluorescence (median) [8]: 2320

B1: Feline endogenous retrovirus receptor-binding domain (RD114 RBD) (ligand)
chain: GFDDPRKAIALVQKQHGKPCECSGGQVSEAPPNSIQQVTCPGKTAYLMTNQKWKCRVTPKISPSGGELQNCPCNTFQDSMHSSCYTEYRQCRRINKTYYTATLLKIRSGSLNEVQILQNPNQLLQSPCRGSINQPVCWSATAPIHISDGGGPLDTKRVWTVQKRLEQIHKAMTPELQYHPLALPKVRDDLSLDARTFDILNTTFRLLQMSNFSLAQDCWLC
notes: not shown: tag: EGFP, mouse-IgG Fc or rabbit-IgG Fc
deltaMedian of fluorescence (median) [9]: 1630 | deltaMedian of fluorescence (median) [10]: 1650

B2: Amphotropic Murine Leukemia Retrovirus receptor-binding domain (AMLV RBD) (ligand)
chain: AESPHQVFNVTWRVTNLMTGRTANATSLLGTVQDAFPKLYFDLCDLVGEEWDPSDQEPYVGYGCKYPAGRQRTRTFDFYVCPGHTVKSGCGGPGEGYCGKWGCETTGQAYWKPTSSWDLISLKRGNTPWDTGCSKVACGPCYDLSKVSNSFQGATRGGRCNPLVLEFTDAGKKANWDGPKSWGLRLYRTGTDPITMFSLTRQVLNVGPRVPIGPNPVLPDQRLPSSPIEIVPAPQPPSPLNTSYPPSTTSTPSTSPTSPSVPQPPPGTGDRLLALVKGAYQALNLTNPDKTQECWLC
notes: as for B1
deltaMedian of fluorescence (median) [11]: 3930 | deltaMedian of fluorescence (median) [12]: 2860

B3: Human T Leukaemia Virus-2 receptor-binding domain (HTLV-2 RBD) (ligand)
chain: QQSRCTLTVGISSYHSSPCSPTQPVCTWNLDLNSLTTDQRLHPPCPNLITYSGFHKTYSLYLFPHWIKKPNRQGLGYYSPSYNDPCSLQCPYLGCQSWTCPYTGPVSSPSWKFHSDVNFTQEVSQVSLRLHFSKCGSSMTLLVDAPGYDPLWFITSEPTQPPPTSPPLVHDSDLEHVLTPSTSWTTKILKFIQLTLQSTNYSCMVC
notes: as for B1
deltaMedian of fluorescence (median) [13]: 4670 | deltaMedian of fluorescence (median) [14]: 3180

B4: Koala endogeneous Retrovirus receptor-binding domain (KoRV RBD) (ligand)
chain: NQQHNNPHQPMTLTWQVLSQTGSVVWEKKAVEPPWTWWPSLEPDVCALVAGLESWDIPELTASASQQARPPDSNYEHAYNQITWGTLGCSYPRARTRIARSQFYVCPRDGRSLSEARRCGGLESLYCKEWGCETAGTAYWQPRSSWDLITVGQGHPTGTCERTGWCNPLKIEFTEPGKRFRNWLQGRTWGLRFYVTGHPGVQLTIRLVITSPPPVVVGPDPVLAEQGPPRKIPFLPRVPVPTLSPPASPIPTVQASPPAPSTPSPTTGDRLFGLVQGAFLALNATNPEATESCWLC
notes: as for B1
deltaMedian of fluorescence (median) [15]: 2640 | deltaMedian of fluorescence (median) [16]: 1880
